Reference: patent US20170298096A1 (CANIMGUIDE THERAPEUTICS, published 2017)
No end group written: not given here.

Target: T1, His-tagged P3028 (human, also: His-tag, terminus and sequence not given here)
T1 construct: in solution at 0.5 ug/mL over the peptide cards; found with anti-His-tag antibody and rabbit anti-mouse peroxidase (rampo); also called PGE73; not shown: His-tag
T1 peptide: VFDEFKPLVEEPQNLIK
Assay: PEPSCAN chip ELISA, His-P3028 in solution;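 also: score is the raw OD at 405 nm from peroxidase colour with ABTS, imaged by CCD camera before and after staining, with wells showing air bubbles set to zero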

Binder | RAMPO Score [rampo score]
RKLDTFFVKLSLFTER [SEQ ID NO 3] | 523
KKLDTFFVKLSLGTER [SEQ ID NO 100] | 531
KKLDTAFVKLSLFTER [SEQ ID NO 7] | 575
KKNDTFFVKLSLFTER [SEQ ID NO 292] | 374
AKLDTFFVKLSLFTER [SEQ ID NO 268] | 466
KKLDTFLVKLSLFTER [SEQ ID NO 13] | 517
KKLDTFFVKLSMFTER [SEQ ID NO 21] | 499
KKLDGFFVKLSLFTER [SEQ ID NO 95] | 386
KKLDTFFVKLHLFTER [SEQ ID NO 18] | 535
KKLDTFFVKLSLPTER [SEQ ID NO 26] | 696
HKLDTFFVKLSLFTER [SEQ ID NO 272] | 428
KKLITFFVKLSLFTER [SEQ ID NO 300] | 430
KKVDTFFVKLSLFTER [SEQ ID NO 297] | 377
KKLDTVFVKLSLFTER [SEQ ID NO 8] | 547
KKLDTFFVKLGLFTER [SEQ ID NO 99] | 288
MKLDTFFVKLSLFTER [SEQ ID NO 275] | 457
IKLDTFFVKLSLFTER [SEQ ID NO 273] | 483
KKLETFFVKLSLFTER [SEQ ID NO 299] | 417
KKLDTFFVKLQLFTER [SEQ ID NO 15] | 768
PKLDTFFVKLSLFTER [SEQ ID NO 277] | 387
KKLDTFFVKLTLFTER [SEQ ID NO 17] | 520
KKMDTFFVKLSLFTER [SEQ ID NO 291] | 460
KKADTFFVKLSLFTER [SEQ ID NO 282] | 427
KKGDTFFVKLSLFTER [SEQ ID NO 94] | 563

Binder | RAMPO Score [rampo score]
KKLDTFFVKLSLGTER [SEQ ID NO 28] | 531
GKLDTFFVKLSLFTER [SEQ ID NO 93] | 367
KKSDTFFVKLSLFTER [SEQ ID NO 295] | 393
KKLDTFFVKLSQFTER [SEQ ID NO 19] | 651
KKLDQFFVKLSLFTER [SEQ ID NO 6] | 535
KKLDTFFVKLSLMTER [SEQ ID NO 22] | 1190
KKQDTFFVKLSLFTER [SEQ ID NO 293] | 473
KKIDTFFVKLSLFTER [SEQ ID NO 289] | 454
KKEDTFFVKLSLFTER [SEQ ID NO 5] | 528
RKLDTFFVKLSLFTER [SEQ ID NO 279] | 523
KKLDTFVVKLSLFTER [SEQ ID NO 11] | 527
TKLDTFFVKLSLFTER [SEQ ID NO 280] | 493
KKLATFFVKLSLFTER [SEQ ID NO 298] | 494
KKLDTFFKKLSLFTER (also called P27; SCF 27) [SEQ ID NO 264] | 253
KKLDTFFVKLSVFTER [SEQ ID NO 20] | 545
KKRDTFFVKLSLFTER [SEQ ID NO 294] | 370
KKDDTFFVKLSLFTER [SEQ ID NO 284] | 492
KKLDTFGVKLSLFTER [SEQ ID NO 96] | 347
KKTDTFFVKLSLFTER [SEQ ID NO 296] | 451
KKLDTFFVKLSLHTER [SEQ ID NO 24] | 1050
LKLDTFFVKLSLFTER [SEQ ID NO 274] | 449
NKLDTFFVKLSLFTER [SEQ ID NO 276] | 445
KKLDTFFVKLSLRTER [SEQ ID NO 30] | 502
QKLDTFFVKLSLFTER [SEQ ID NO 278] | 455

Binder | RAMPO Score [rampo score]
KKLDTFFVKLSLFNER [SEQ ID NO 31] | 599
DKLDTFFVKLSLFTER [SEQ ID NO 269] | 373
VKLDTFFVKLSLFTER [SEQ ID NO 281] | 442
KKLDTFMVKLSLFTER [SEQ ID NO 9] | 712
KKLDTFFVKLMLFTER [SEQ ID NO 16] | 744
KKLDTFFVKVSLFTER [SEQ ID NO 14] | 658
KKFDTFFVKLSLFTER [SEQ ID NO 286] | 393
KKLDTFFVKLSLATER [SEQ ID NO 29] | 525
KKGDTFFVKLSLFTER [SEQ ID NO 287] | 563
KKLDTFFVKLSLNTER [SEQ ID NO 25] | 862
KKLDTFFVKLSLSTER [SEQ ID NO 27] | 635
KKLDTFFVKLSLQTER [SEQ ID NO 23] | 1140
GKLDTFFVKLSLFTER [SEQ ID NO 271] | 367
KKLDTFFVKLSLFRER [SEQ ID NO 33] | 264
KKGDTFFVKLSLFTER [SEQ ID NO 4] | 563
KKKDTFFVKLSLFTER [SEQ ID NO 290] | 386
KKCDTFFVKLSLFTER [SEQ ID NO 283] | 432
EKLDTFFVKLSLFTER [SEQ ID NO 270] | 396
KKHDTFFVKLSLFTER [SEQ ID NO 288] | 477
KKEDTFFVKLSLFTER [SEQ ID NO 285] | 528
KKLDTFFVKLSLFPER [SEQ ID NO 32] | 551
KKLDTFTVKLSLFTER [SEQ ID NO 12] | 517
KKLDTFSVKLSLFTER [SEQ ID NO 10] | 700
